Experimental data as given in PMC7383879, “HSI2/VAL1 and HSL1/VAL2 function redundantly to repress DOG1 expression in Arabidopsis seeds and seedlings”.

T1: HSI2 B3 domain (B3HSI2) (Arabidopsis thaliana, UniProt Q8W4L5 295-396)
T1 sequence: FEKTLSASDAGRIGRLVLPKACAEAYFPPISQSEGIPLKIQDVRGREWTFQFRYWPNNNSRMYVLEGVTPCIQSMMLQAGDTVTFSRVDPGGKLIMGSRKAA


Molecular target: T1, HSI2 B3 domain (B3HSI2)
Assay: EMSA; 10 mM Tris pH 7.9, 30 mM KCl, 0.1 mM EDTA, 1 mM DTT, 0.05% NP-40, 6.5% glycerol, 50 ng/ml (so in the source) poly(dIdC), 50 fmol probe, 20 min at room temperature
Details: protein: recombinant; tags: His-Trx (Results); His (Methods, legend); label: 3' biotin; blunt

| Binder | binding result |
| --- | --- |
| RY1 probe (dsDNA) DNA 1: GTCCTCCACGTAATGCATGCATGCGTTATTTCTTTT DNA 2: AAAAGAAATAACGCATGCATGCATTACGTGGAGGAC | binds |
| mRY1 probe (dsDNA) DNA 1: GTCCTCCACGTAATGGACTACTGCGTTATTTCTTTT DNA 2: AAAAGAAATAACGCAGTAGTCCATTACGTGGAGGAC | no binding |
